Source: the supplement of paper PMC7125110
± gives the standard error. This sample holds only a part of the variants without activity.

B1: glmS ribozyme (parent)
chain: AUAAAAGCGCCAGAACUACAGAAAUGUAGUUGACGAGGAGGAGGUUUAUCGAAUUUUCGGCGGAUGCCUCCAAA

Tests used:
Conditions in all cases: with glucosamine-6-phosphate
glucosamine-6-phosphate [1] = variants of: B1; assay: self-cleavage kobs at 160 uM GlcN6P; higher = faster cleavage; RNA array
Outline: (§1)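 E. coli RNA polymerase transcribed barcoded ribozyme variants in situ on sequenced MiSeq chips, which were tracked via a hybridised Cy3 probe at 37 °C. Tiles were imaged over ~14 h after glucosamine-6-phosphate (40 μM to 10 mM) in HEPES/KCl/Mg(OAc)2 buffer was flowed in. Normalised per-tile medians were fit to one- or two-exponential decays for kobs, and kcat and KM came from weighted Michaelis–Menten fits.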

glucosamine-6-phosphate [2] = variants of: B1; assay: self-cleavage kobs at 640 uM GlcN6P; higher = faster cleavage; RNA array
Outline: as §1

glucosamine-6-phosphate [3] = variants of: B1; assay: self-cleavage kobs at 2500 uM GlcN6P; higher = faster cleavage; RNA array
Outline: as §1

glucosamine-6-phosphate [4] = variants of: B1; assay: self-cleavage kobs at 10000 uM GlcN6P; higher = faster cleavage; RNA array
Outline: as §1

glucosamine-6-phosphate [5] = variants of: B1; assay: self-cleavage kobs at 40 uM GlcN6P; higher = faster cleavage; RNA array
Outline: as §1

Variant | self-cleavage kobs at 160 uM GlcN6P (glucosamine-6-phosphate [1]) | self-cleavage kobs at 640 uM GlcN6P (glucosamine-6-phosphate [2]) | self-cleavage kobs at 2500 uM GlcN6P (glucosamine-6-phosphate [3]) | self-cleavage kobs at 10000 uM GlcN6P (glucosamine-6-phosphate [4]) | self-cleavage kobs at 40 uM GlcN6P (glucosamine-6-phosphate [5])
C34A A42U | < 1e-05 s⁻¹ | < 1e-05 s⁻¹ | < 1e-05 s⁻¹ | < 1e-05 s⁻¹ | –
G32C U69G | – | 0.000383 ± 8e-05 s⁻¹ | 0.000111 ± 2.5e-05 s⁻¹ | 9.57e-05 ± 1.1e-05 s⁻¹ | 0.000189 ± 3.1e-05 s⁻¹
C8A C16A G40C U65G | < 1e-05 s⁻¹ | – | < 1e-05 s⁻¹ | – | –
U31A G51A | < 1e-05 s⁻¹ | < 1e-05 s⁻¹ | < 1e-05 s⁻¹ | < 1e-05 s⁻¹ | –
G41C | 4.15e-05 ± 1.9e-06 s⁻¹ | 0.000131 ± 3.6e-06 s⁻¹ | 0.000529 ± 4.7e-05 s⁻¹ | 0.00255 ± 0.00067 s⁻¹ | 1.75e-05 ± 1.7e-06 s⁻¹
G32U A42C | < 1e-05 s⁻¹ | < 1e-05 s⁻¹ | < 1e-05 s⁻¹ | – | –
G35U C50U | < 1e-05 s⁻¹ | – | – | < 1e-05 s⁻¹ | –
G38U G43U U65C | < 1e-05 s⁻¹ | – | – | – | –
C10U G40C G44U | < 1e-05 s⁻¹ | – | < 1e-05 s⁻¹ | < 1e-05 s⁻¹ | –
G7U C16G G43U C67G | < 1e-05 s⁻¹ | < 1e-05 s⁻¹ | – | – | –
A6G C50U U55C | < 1e-05 s⁻¹ | < 1e-05 s⁻¹ | < 1e-05 s⁻¹ | < 1e-05 s⁻¹ | –
A33G C34A | – | – | – | < 1e-05 s⁻¹ | < 1e-05 s⁻¹
A6C C8U C67A C70U | < 1e-05 s⁻¹ | – | – | – | –
C11G U47A | < 1e-05 s⁻¹ | < 1e-05 s⁻¹ | – | < 1e-05 s⁻¹ | –
A12C C50A A53G G63U | < 1e-05 s⁻¹ | – | – | – | –
A33U U47A G62U A64G C71U | < 1e-05 s⁻¹ | < 1e-05 s⁻¹ | – | – | –
A6C A52U C67G | – | – | – | – | < 1e-05 s⁻¹
G9A A14U A36C U46G | < 1e-05 s⁻¹ | – | < 1e-05 s⁻¹ | – | –
G41C A52C G60A G63A G66A C68U | < 1e-05 s⁻¹ | < 1e-05 s⁻¹ | – | – | –
C10G C11A C16U G38U | < 1e-05 s⁻¹ | < 1e-05 s⁻¹ | – | < 1e-05 s⁻¹ | –
C10U A12C U31G A42G | < 1e-05 s⁻¹ | – | – | – | –
A42C A52G U55A U57G C68U C70U | < 1e-05 s⁻¹ | < 1e-05 s⁻¹ | < 1e-05 s⁻¹ | – | –
C10U C11G A39C | < 1e-05 s⁻¹ | < 1e-05 s⁻¹ | – | – | –
C8A U31C A48U G51A G59C | < 1e-05 s⁻¹ | < 1e-05 s⁻¹ | < 1e-05 s⁻¹ | – | –
G7U A14C A48U | < 1e-05 s⁻¹ | < 1e-05 s⁻¹ | < 1e-05 s⁻¹ | – | –
C11G G29C U31G G37A C68G | – | – | – | – | < 1e-05 s⁻¹

Variant | self-cleavage kobs at 160 uM GlcN6P (glucosamine-6-phosphate [1]) | self-cleavage kobs at 640 uM GlcN6P (glucosamine-6-phosphate [2]) | self-cleavage kobs at 2500 uM GlcN6P (glucosamine-6-phosphate [3]) | self-cleavage kobs at 10000 uM GlcN6P (glucosamine-6-phosphate [4]) | self-cleavage kobs at 40 uM GlcN6P (glucosamine-6-phosphate [5])
G38A G40A U49G G60U | < 1e-05 s⁻¹ | < 1e-05 s⁻¹ | < 1e-05 s⁻¹ | – | –
U46C C58U C67A | < 1e-05 s⁻¹ | – | – | – | –
G9A G38A G51A | < 1e-05 s⁻¹ | < 1e-05 s⁻¹ | < 1e-05 s⁻¹ | – | –
A42G C50U G63U C71G | – | – | – | < 1e-05 s⁻¹ | < 1e-05 s⁻¹
C34G U56A G62A C67U | < 1e-05 s⁻¹ | – | – | – | –
A6U C11U | < 1e-05 s⁻¹ | – | – | – | –
A15G G63A U69G | 4.54e-05 ± 2e-05 s⁻¹ | 0.000141 ± 4.8e-05 s⁻¹ | – | – | –
A6G C58U U65C | < 1e-05 s⁻¹ | – | < 1e-05 s⁻¹ | – | –
G35U G41A A48G C58G | < 1e-05 s⁻¹ | – | – | – | –
A14C U54C U57A G60A C70U | < 1e-05 s⁻¹ | < 1e-05 s⁻¹ | < 1e-05 s⁻¹ | – | –
A15U G32U G37A G62U | < 1e-05 s⁻¹ | – | – | – | –
G13U A14U U57C | < 1e-05 s⁻¹ | – | < 1e-05 s⁻¹ | – | –
A6C G44U | < 1e-05 s⁻¹ | < 1e-05 s⁻¹ | < 1e-05 s⁻¹ | < 1e-05 s⁻¹ | –
C8A G9U | < 1e-05 s⁻¹ | < 1e-05 s⁻¹ | < 1e-05 s⁻¹ | < 1e-05 s⁻¹ | < 1e-05 s⁻¹
A12G G32C C71A | < 1e-05 s⁻¹ | < 1e-05 s⁻¹ | – | – | –
U45G A53C C71U | 0.000134 ± 5.7e-05 s⁻¹ | 0.000323 ± 7e-05 s⁻¹ | 0.000938 ± 0.00023 s⁻¹ | – | –
G7A U54C U65G C67U | < 1e-05 s⁻¹ | < 1e-05 s⁻¹ | < 1e-05 s⁻¹ | – | –
C8U C16A | – | < 1e-05 s⁻¹ | < 1e-05 s⁻¹ | < 1e-05 s⁻¹ | < 1e-05 s⁻¹
C10A U55A C67G | 6.55e-05 ± 3e-05 s⁻¹ | 0.000418 ± 0.00019 s⁻¹ | – | – | –
C34U C67A | < 1e-05 s⁻¹ | – | < 1e-05 s⁻¹ | – | –
C34U C67U | < 1e-05 s⁻¹ | – | < 1e-05 s⁻¹ | – | –
G37A C61A | – | < 1e-05 s⁻¹ | – | < 1e-05 s⁻¹ | < 1e-05 s⁻¹
A12U A14U A53G | – | – | – | 0.00411 ± 0.00079 s⁻¹ | 0.000135 ± 3.3e-05 s⁻¹
C8U A12C G43C U49C | < 1e-05 s⁻¹ | < 1e-05 s⁻¹ | < 1e-05 s⁻¹ | < 1e-05 s⁻¹ | –
A14G A15U C67G | – | – | – | 0.0027 ± 0.00046 s⁻¹ | 5.43e-05 ± 1.3e-05 s⁻¹
